Measurements published in publication PMC7017467, “Enhancement of bleomycin production in Streptomyces verticillus through global metabolic regulation of N-acetylglucosamine and assisted metabolic profiling analysis”.

T1: DasR (Streptomyces verticillus ATCC 15003, UniProt A0A7M1Y6D7 1-256)
T1 sequence: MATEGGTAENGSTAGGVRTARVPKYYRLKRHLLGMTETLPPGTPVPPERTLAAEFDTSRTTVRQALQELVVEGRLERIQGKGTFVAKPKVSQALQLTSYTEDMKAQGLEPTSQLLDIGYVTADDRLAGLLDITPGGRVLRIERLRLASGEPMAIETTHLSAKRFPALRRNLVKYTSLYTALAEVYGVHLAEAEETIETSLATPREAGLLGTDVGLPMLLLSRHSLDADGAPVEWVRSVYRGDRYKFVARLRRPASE

B1: PDasA (dsDNA)
DNA 1: CCAAAAGGTCTAGGCCAAGCTGCGGGCACTGGTCTAAACCATTAAAGACCACTTTTCGGTCCTGAGGAGA
DNA 2: TCTCCTCAGGACCGAAAAGTGGTCTTTAATGGTTTAGACCAGTGCCCGCAGCTTGGCCTAGACCTTTTGG
B2: PBlmR (dsDNA)
DNA 1: GAGAGCACTGTAAGCCCGAACCCGCAAGGATGACGAATTGCAAAATTGTGCAAGTCGCTACATGATGGTCCGGCTGTGCCCGCAGGTAGCCGCGGGCACAGCACCAGACGCTGCCTCCGCGCACCGCGCGGGAGGCCCGGTGAGGCGAGAGGCTGAGGTTCC
DNA 2: GGAACCTCAGCCTCTCGCCTCACCGGGCCTCCCGCGCGGTGCGCGGAGGCAGCGTCTGGTGCTGTGCCCGCGGCTACCTGCGGGCACAGCCGGACCATCATGTAGCGACTTGCACAATTTTGCAATTCGTCATCCTTGCGGGTTCGGGCTTACAGTGCTCTC

Molecular target: T1, DasR
Test: EMSA; EMSA buffer (composition, pH and temperature not given), 30 min incubation, 6% native polyacrylamide gel
Conditions: protein: recombinant, tags: C-terminal 6xHis (introduced by reverse primer), chain copies: 2, blunt

| Binder | binding result (label: 5'-Cy5) | binding result |
| --- | --- | --- |
| B1 | binds | – |
| B2 | – | no binding |
